# B1: AAC(2′)-Ia from Providencia stuartii (enzyme)
# chain: MGIEYRSLHTSQLTLSEKEALYDLLIEGFEGDFSHDDFAHTLGGMHVMAFDQQKLVGHVAIIQRHMALDNTPISVGYVEAMVVEQSYRRQGIGRQLMLQTNKIIASCYQLGLLSASDDGQKLYHSVGWQIWKGKLFELKQGSYIRSIEEEGGVMGWKADGEVDFTASLYCDFRGGDQW
# notes: AAC(2′)-Ia, aminoglycoside 2′-N-acetyltransferase from Providencia stuartii; synthesized gene in pET-15b (NdeI/BamHI); Crystallised with acetyl-CoA or CoA and an aminoglycoside; also called aminoglycoside (2′)-N-acetyltransferase; source: E. coli BL21(DE3), purified (Ni-IDA-Sepharose, thrombin cleavage, benzamidine column, DEAE Sepharose); not shown: HIS-tag, N-terminal, cleaved
# Target: the molecule itself
# Test: crystal structure; crystals grown at 4 °C by sitting-drop vapour diffusion, 10 mg/mL AAC(2′)-Ia with 10 mM acetyl-CoA and 10 mM antibiotic (tobramycin, netilmicin or amikacin); two chains (A and B) in the models
protein,measurement,value
B1,binding result,binds

# — paper PMC8172861, “Structural and phylogenetic analyses of resistance to next-generation aminoglycosides conferred by AAC(2′) enzymes” (Scientific Reports, 2021)
